The record followed here is patent publication US20120294860A1 (TORAY INDUSTRIES, published 2012).

This assay deals with T1, human CAPRIN-1 protein expressed on the surface of human cancer cells (human, UniProt Q14444 2-709).
T1 sequence: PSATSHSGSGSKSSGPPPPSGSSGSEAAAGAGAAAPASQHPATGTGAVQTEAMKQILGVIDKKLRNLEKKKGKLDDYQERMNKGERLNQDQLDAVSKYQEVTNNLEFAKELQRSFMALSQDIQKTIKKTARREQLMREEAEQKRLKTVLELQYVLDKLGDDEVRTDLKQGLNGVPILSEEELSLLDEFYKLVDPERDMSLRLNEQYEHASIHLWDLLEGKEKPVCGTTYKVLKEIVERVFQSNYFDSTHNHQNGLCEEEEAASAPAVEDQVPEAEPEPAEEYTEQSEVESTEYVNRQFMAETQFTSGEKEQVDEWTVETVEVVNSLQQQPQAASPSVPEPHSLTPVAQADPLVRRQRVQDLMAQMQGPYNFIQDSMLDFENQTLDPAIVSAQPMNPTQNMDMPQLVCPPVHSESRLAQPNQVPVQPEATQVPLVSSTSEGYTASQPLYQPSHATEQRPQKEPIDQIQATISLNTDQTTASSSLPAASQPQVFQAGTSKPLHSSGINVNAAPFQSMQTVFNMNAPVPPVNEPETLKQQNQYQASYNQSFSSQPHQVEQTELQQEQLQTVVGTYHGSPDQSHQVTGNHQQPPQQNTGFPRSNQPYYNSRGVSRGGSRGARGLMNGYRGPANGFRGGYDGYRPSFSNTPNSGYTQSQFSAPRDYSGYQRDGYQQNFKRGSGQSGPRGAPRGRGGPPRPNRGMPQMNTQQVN
As to the kind of experiment: cell-based or functional assay.

B1: anti-CAPRIN-1 monoclonal antibody #1 (antibody, V domains shown)
VH: EVQLHQFGAELVKPGASVKISCKASGYTFTDYNMDWVKQSHGKSLEWIGDINPNYDSTSYNQKFKGKATLTVDKSSSTAYMELRSLTSEDTAVYYCARSRSYDYEGFAYWGQGTLVTVSA
VL: DIQMTQSPASLSASVGETVTITCRASGNIHNYLAWYQQKQGKSPQLLVYNAKTLADGVPSRFSGSGSGTQYSLKINSLQPEDFGSYYCQHFWSTLTFGAGTKLELKR
With B1, the “ADCC activity against MDA-MB-157” value is at least 20% and the “CDC activity against MDA-MB-231V” value is at least 30%.

B2: anti-CAPRIN-1 monoclonal antibody #3 (antibody, V domains shown)
VH: EVQLHQFGAELVKPGASVKISCKASGYTFTDYNMDWVKQSHGKSLEWIGDINPNYDSTSYNQKFKGKATLTVDKSSSTAYMELRSLTSEDTAVYYCARSRSYDYEGFAYWGQGTLVTVSA
VL: DIQLTQSPASLSASVGETVTITCRASGNIHNYLAWYQQKQGKSPQLLVYNAKTLADGVPSRFSGSGSGTQYSLKINSLQPEDFGSYYCQHFWSTLTFGGGTKLEIK
Regarding B2, the “ADCC activity against MDA-MB-157” value is at least 20% and the “CDC activity against MDA-MB-231V” value is at least 30%.

B3: anti-CAPRIN-1 monoclonal antibody #4 (antibody, V domains shown)
VH: EVQLHQFGAELVKPGASVKISCKASGYTFTDYNMDWVKQSHGKSLEWIGDINPNYDSTSYNQKFKGKATLTVDKSSSTAYMELRSLTSEDTAVYYCARSRSYDYEGFAYWGQGTLVTVSA
VL: SGDRVSLSCRASQSISNYLHWYQQKSHESPRLLIKYASQSISGIPSRFSGSGSGTDFTLSINSVETEDFGMYFCQQSNSWPYTFGAGTKLEIKQ
B3: the “ADCC activity against MDA-MB-157” value was at least 20% and the “CDC activity against MDA-MB-231V” value is at least 30%.

B4: anti-CAPRIN-1 monoclonal antibody #7 (antibody, V domains shown)
VH: LQESGAELARPGASVKLSCKASGYTFTSYWMQWVKQRPGQGLEWIGAIYPGDGDTRYTQKFKGKATLTADKSSSTAYMQLSSLASEDSAVYYCARGEYGNYFAYWGQGTTVTVSS
VL: TSDASLGERVTITCKASQDINSYLSWFQQKPGKSPKTLIYRANRLVDGVPSRFSGSGSGQDYSLTISSLEYEDMGIYYCLQYDEFPLTFGGGTKLEIKQ
For B4, the “ADCC activity against MDA-MB-157” value was at least 20% and the “CDC activity against MDA-MB-231V” value is at least 30%.
